Assays:
[1] = target: ctPrp43 (DEAH-box RNA helicase Prp43 from Chaetomium thermophilum), wild type (C. thermophilum) (UniProt G0RY84)
[2] = target: ctPrp43 (DEAH-box RNA helicase Prp43 from Chaetomium thermophilum), wild type (C. thermophilum) (UniProt G0RY84); remark: listed apart in the source
[3] = target: ctPrp43(Y348G, T350G) (C. thermophilum)
[4] = target: ctPrp43(F181C, N623C) (C. thermophilum)
[5] = target: ctPrp43(R180G, F181G, Y348G, T350G) (C. thermophilum)
[6] = target: ctPrp43(R180G, F181G) (C. thermophilum)

Row | ATPase activity kcat with five-fold excess of G-patch, no RNA (ctPrp43 alone 1.81 min^-1) [1] [s⁻¹] | helicase activity (maximal unwinding velocity of a dsRNA with 3' overhang; 250 nM ctPrp43, 1.25 uM G-patch; ctPrp43 alone 0.54 nM/min) [2] [nM/min] | ATPase activity kcat with five-fold excess of G-patch, no RNA (ctPrp43-HL alone 6.19 min^-1) [3] [s⁻¹] | ATPase activity kcat with five-fold excess of G-patch, no RNA (ctPrp43-IDSB alone 5.04 min^-1) [4] [s⁻¹] | ATPase activity kcat with five-fold excess of G-patch, no RNA (ctPrp43-HT&HL alone 7.61 min^-1) [5] [s⁻¹] | ATPase activity kcat with five-fold excess of G-patch, no RNA (ctPrp43-HT alone 13.21 min^-1) [6] [s⁻¹] | Substance
1 | 0.0693 | 1.98 |  |  |  |  | ctNtr1(242-305), truncated G-patch construct of the C. thermophilum Ntr1 homolog (domain or fragment)
2 | 0.605 | 60 | 1.44 | 3.32 | 1.89 | 1.02 | ctPfa1(662-742), truncated G-patch construct of the C. thermophilum Pfa1 homolog (domain or fragment)

Source: publication PMC5262380, “Structural insights into the mechanism of the DEAH-box RNA helicase Prp43” (eLife, 2017)
